According to US7875585 (dated 2011):

B1: PSGL-1 from HL60 cells (ligand, human, UniProt Q14242 42-412, looked up)
chain: QATEYEYLDYDFLPETEPPEMLRNSTDTTPLTGPGTPESTTVEPAARRSTGLDAGGAVTELTTELANMGNLSTDSAAMEIQTTQPAATEAQTTQPVPTEAQTTPLAATEAQTTRLTATEAQTTPLAATEAQTTPPAATEAQTTQPTGLEAQTTAPAAMEAQTTAPAAMEAQTTPPAAMEAQTTQTTAMEAQTTAPEATEAQTTQPTATEAQTTPLAAMEALSTEPSATEALSMEPTTKRGLFIPFSVSSVTHKGIPMAASNLSVNYPVGAPDHISVKQCLLAILILALVATIFFVCTVVLAVRLSRKGHMYPVRNYSPTEMVCISSLLPDGGEGPSATANGGLSKAKSPGLTPEPREDREGDDLTLHSFLP
modifications: HECA-452-reactive glycans
notes: mature; also called HL60 PSGL-1; PSGL-1/CLA
B2: L-selectin on rat thoracic duct lymphocytes (receptor, UniProt P30836 39-372, looked up)
chain: WTYHYSERSMNWENARKFCKHNYTDLVAIQNKREIEYLEKTLPKNPTYYWIGIRKIGKTWTWVGTNKTLTKEAENWGTGEPNNKKSKEDCVEIYIKRERDSGKWNDDACHKRKAALCYTASCQPESCNRHGECVETINNNTCICDPGYYGPQCQYVIQCEPLKAPELGTMNCIHPLGDFSFQSQCAFNCSEGSELLGNAKTECGASGNWTYLEPICQVIQCMPLAAPDLGTMECSHPLANFSFTSACTFTCSEETDLIGERKTVCRSSGSWSSPSPICQKTKRSFSKIKEGDYNPLFIPVAVMVTAFSGLAFIIWLARRLKKGKKSQERMDDPY
notes: whole, on cells; also called rat L-selectin; TDL L-selectin
B3: L-selectin immunoprecipitated from KG1a cells (receptor, human, UniProt P14151 39-372, looked up)
chain: WTYHYSEKPMNWQRARRFCRDNYTDLVAIQNKAEIEYLEKTLPFSRSYYWIGIRKIGGIWTWVGTNKSLTEEAENWGDGEPNNKKNKEDCVEIYIKRNKDAGKWNDDACHKLKAALCYTASCQPWSCSGHGECVEIINNYTCNCDVGYYGPQCQFVIQCEPLEAPELGTMDCTHPLGNFSFSSQCAFSCSEGTNLTGIEETTCGPFGNWSSPEPTCQVIQCEPLSAPDLGIMNCSHPLASFSFTSACTFICSEGTELIGKKKTICESSGIWSNPSPICQKLDKSFSMIKEGDYNPLFIPVAVMVTAFSGLAFIIWLARRLKKGKKSKRSMNDPY
notes: mature; also called L-selectin (Molecular Control)

Assays:
[1] = molecular target: L-selectin on lymphocytes (human or rat not given); test: Stamper-Woodruff assay, equimolar amounts of KG1a CD44 and PSGL-1, 80 rpm
[2] = molecular target: L-selectin on lymphocytes (human or rat not given); test: blot rolling assay, lymphocytes over blotted KG1a membrane protein, 2.3 dynes/cm^2
[3] = molecular target: L-selectin on lymphocytes (human or rat not given); test: Stamper-Woodruff assay, lymphocytes on immunoprecipitate spotted on glass
[4] = molecular target: L-selectin on lymphocytes (human or rat not given); test: cell-based or functional assay
[5] = molecular target: L-selectin on human lymphocytes or neutrophils (human) (UniProt P14151); test: cell-based or functional assay
[6] = molecular target: L-selectin on rat thoracic duct lymphocytes (rat) (UniProt P30836); test: cell-based or functional assay
[7] = molecular target: PSGL-1 from HL60 cells (human) (UniProt Q14242); test: fixed HL60 cells treated with PL-1 (10 µg/ml), rat lymphocyte (L-selectin) rolling at 4.4 dynes/cm^2
[8] = molecular target: PSGL-1 from KG1a cells (human) (UniProt Q14242); test: fixed KG1a cells treated with PL-1 (10 µg/ml), rat lymphocyte (L-selectin) rolling at 4.4 dynes/cm^2
[9] = molecular target: L-selectin on human lymphocytes or neutrophils (human) (UniProt P14151); test: Stamper-Woodruff assay, human lymphocytes treated with LAM1-3, on immunoprecipitated KG1a CD44
[10] = molecular target: T1, human E-selectin on CHO-E cells (human, UniProt P16581 22-610); test: blot rolling assay, CHO-E cells over blotted HL60 membrane protein
T1 construct: whole, on cells; also called CD62E
T1 sequence (looked up): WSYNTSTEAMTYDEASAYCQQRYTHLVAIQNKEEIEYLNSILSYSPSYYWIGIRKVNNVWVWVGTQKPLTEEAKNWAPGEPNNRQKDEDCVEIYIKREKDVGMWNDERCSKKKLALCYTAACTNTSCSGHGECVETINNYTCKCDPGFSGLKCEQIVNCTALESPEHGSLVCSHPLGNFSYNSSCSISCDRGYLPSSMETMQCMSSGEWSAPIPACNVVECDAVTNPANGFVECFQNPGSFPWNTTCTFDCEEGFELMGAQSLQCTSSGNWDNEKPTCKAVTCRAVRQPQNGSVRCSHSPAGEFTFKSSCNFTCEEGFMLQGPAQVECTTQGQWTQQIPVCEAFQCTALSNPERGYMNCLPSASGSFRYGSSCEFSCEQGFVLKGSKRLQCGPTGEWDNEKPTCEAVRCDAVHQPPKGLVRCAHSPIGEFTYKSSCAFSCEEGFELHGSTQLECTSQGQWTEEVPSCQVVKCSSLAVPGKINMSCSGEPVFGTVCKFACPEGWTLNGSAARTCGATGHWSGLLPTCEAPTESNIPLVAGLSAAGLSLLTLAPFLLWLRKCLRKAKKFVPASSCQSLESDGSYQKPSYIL
Description: The blot rolling assay was performed as previously described (Dimitroff et al., 2000). Briefly, CHO-E, CHO-P or CHO-Mock transfectants were isolated as described above, washed twice in HBSS and suspended at 10^7/ml in HBSS/10 mM HEPES/2mMCaCl_2 (H/H/Ca++)/10% glycerol. […] The blots were then placed in the parallel-plate flow chamber, and CHO transfectants (2×10^6/ml) were perfused into the chamber. After allowing the cells to come in contact with the blotting membrane, the flow rate was adjusted to exert a shear stress of 3.8 dynes/cm^2. The viscosity of 10% glycerol adhesion assay medium was considered in the calculation of shear stress values. The number of cells rolling on and between each immunostained banding region was quantified under 100× magnification within each field of view on the video monitor using molecular weight markers (Kaleidoscope Molecular Weight Markers, Bio-Rad Lab.; See Blue® from Novex, Inc.) as guides to help align and visualize the apparent molecular weights of the proteins of interest. A minimum of 3 experiments was performed and results were expressed as the mean±SD of cell rolling/field at 100× magnification. […]

[11] = molecular target: T2, CD34 immunoprecipitated from KG1a cells (human, UniProt P28906 32-385); test: Stamper-Woodruff assay, 80 rpm, rat thoracic duct lymphocytes
T2 construct: mature; also called KG1a CD34; CD34 (Molecular Control)
T2 sequence (looked up): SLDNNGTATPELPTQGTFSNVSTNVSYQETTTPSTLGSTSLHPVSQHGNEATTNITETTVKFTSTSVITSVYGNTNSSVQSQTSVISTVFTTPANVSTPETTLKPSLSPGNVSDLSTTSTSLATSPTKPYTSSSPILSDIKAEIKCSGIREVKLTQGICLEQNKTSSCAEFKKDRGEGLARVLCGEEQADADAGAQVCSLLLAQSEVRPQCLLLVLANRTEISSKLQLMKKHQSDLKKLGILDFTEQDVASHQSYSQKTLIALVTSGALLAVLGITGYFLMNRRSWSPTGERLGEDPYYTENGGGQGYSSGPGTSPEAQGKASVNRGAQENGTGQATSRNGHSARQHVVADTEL
Description: (§1) Lymphocytes (10^7/ml RPMI-1640 without NaBicarbonate/5'/oFBS) were overlayed onto these fixed immunoprecipitates and incubated on an orbital shaker at 80 rpm for 30 min. at 4° C. The number of adherent lymphocytes was quantified by light microscopy using an ocular grid under 100× magnification (a minimum of 5 fields/slide, 2 slides/experiment, and 3 separate experiments). Data were presented as the mean number of bound lymphocytes±standard deviation. KG1a CD34 and L-selectin control immunoprecipitates were also tested in this manner. To verify the dependence for sialic acid, glutaraldehyde-fixed spots were treated with *Vibrio cholerae* neuraminidase (0.1U/ml RPMI-1640 without NaBicarbonate/2% FBS for 1 hr at 37° C.). In addition, to verify that cellular adhesion was dependent on L-selectin, all assays included negative controls, in which lymphocytes were treated with PMA (50 ng/ml for 30 min at 37° C.) or functional blocking antibodies (anti-rat-L-selectin moAb HRL-1 or anti-human L-selectin moAb LAM1-3;10 µg/ml), or lymphocyte suspensions contained 5 mM EDTA.
(§2) [2]The average number of bound lymphocytes from 5 fields of view at 100x mag. from duplicate slides and a minimum of three experiments. […]

[12] = molecular target: B2; test: as above
Description: as §1, §2

hematopoietic cell E-selectin/L-selectin ligand (HCELL), the CD44 glycoform of KG1a cells (from UniProt P16070 21-742)
fold lymphocyte binding compared with PSGL-1 [1]: < 10 fold | fold L-selectin ligand activity compared to other bands [2]: < 6 fold | bound cells/field (bound cells/field) [3]: 362 | L-selectin-mediated lymphocyte adherence to KG1a cells against HL60 cells at 80 rpm, Stamper-Woodruff assay [4]: 10 fold | frequency of rolling lymphocytes on KG1a cells against HL60 cells, parallel-plate flow chamber [4]: < 5 fold | L-selectin-mediated neutrophil rolling on KG1a cells against HL60 cells, parallel-plate flow chamber [5]: 4 fold | % Control Mean Lymphocyte Binding; KG1a Cells + mocarhagin (% of untreated control) [6]: 110 | % Control Mean Lymphocyte Binding; KG1a Cells +Neur. + DMSO (% of untreated control) [6]: 103 | % Control Mean Lymphocyte Binding; KG1a Cells +Neur. + Tunicamycin (15 µg/ml) (% of untreated control) [6]: 34.3 | % Control Mean Lymphocyte Binding; KG1a Cells +OSGE (60 µg/ml) (% of untreated control) [6]: 104 | % Control Mean Lymphocyte Binding; KG1a Cells +neuraminidase (Neur.) (0.1 U/ml) (% of untreated control) [6]: 0.3

anti-PSGL-1 monoclonal antibody PL-1
% Control Mean Lymphocyte Binding (% of untreated control) [7]: 62.5 | % Control Mean Lymphocyte Binding (% of untreated control) [8]: 105

anti-human L-selectin monoclonal antibody LAM1-3
bound cells/field left after the antibody (bound cells/field) [9]: < 10

B1
binding result [10]: binds

B2
binding result [11]: no binding

B3
binding result [12]: no binding
